In patent US20210130444A1 (University of California, published 2021):

B1: rAb-58 (recombinant monoclonal NMO-IgG) (antibody, V domains shown)
VH: VQLVESGGGLVQPGGSLRLSCAASGFTFRGYAMNWVRQAPGKGLEWVASISGSGSITQYADSAKGRFTITRDNSKSTLYAHVSSLRADDTAVYYCAKGDYVFDYWGQGTLVTVSS
VL: DIQMTQSPSALSASVGDTVTITCRASQSIRSWLAWYQQKPGKAPKLLIYKASDLQSGVPSRFSGSGSGTDFTLTISGLQPDDFATYYCQHYNSYPYTFGQGTKVEIRR
notes: Human recombinant IgG made in HEK293 cells
B2: rAb-53 (recombinant monoclonal NMO-IgG, non-mutated) (antibody, V domains shown)
VH: QVQLQESGAGLVKPSETLSLTCTVSGGSISGHYWNWIRQPPGKGLEWIGYIHYSGSTNYNPSLKSRVTISVDTSKNQFSLKLSSVTAADTAVYYCARAEGRGWSAFYYYYMEVWGKGSTVSVSS
VL: EIVLTQSPGTLSLSPGERATLSCRASQTVRTNYLAWFQQKPGQAPRLLIFGASSRATGIPDRFSGSGSGTDFTLTISRLEPEDFAVYYCQQYGSSPWTFGQGTKVEIKR
notes: Human recombinant IgG made in HEK293 cells; also called NMO-IgG (rAb-53)

Tests used:
[1] = target: Myc-tagged human M1 AQP4 on U87MG cells (human) (UniProt P55087); assay: fluorescence ratio imaging on U87MG cells (FIG. 6C)
Chain of Myc-tagged human M1 AQP4 on U87MG cells (human) (P55087 whole entry): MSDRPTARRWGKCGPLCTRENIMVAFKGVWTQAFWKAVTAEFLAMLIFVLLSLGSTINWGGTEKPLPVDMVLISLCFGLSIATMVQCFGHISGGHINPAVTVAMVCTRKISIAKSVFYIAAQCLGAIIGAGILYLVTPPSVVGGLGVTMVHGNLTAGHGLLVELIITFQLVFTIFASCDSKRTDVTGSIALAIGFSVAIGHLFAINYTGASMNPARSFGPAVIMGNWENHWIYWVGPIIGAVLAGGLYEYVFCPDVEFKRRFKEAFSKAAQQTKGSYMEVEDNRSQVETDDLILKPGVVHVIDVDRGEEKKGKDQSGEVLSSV

[2] = target: Myc-tagged human M23 AQP4 on U87MG cells (human) (UniProt P55087); assay: as above
Chain of Myc-tagged human M23 AQP4 on U87MG cells (human) (P55087 whole entry, canonical isoform): as the sequence (P55087 whole entry) above

[3] = target: Myc-tagged human M1 AQP4 on U87MG cells (human) (UniProt P55087); assay: fluorescence ratio imaging on U87MG cells expressing Myc-tagged AQP4, anti-mouse IgG Alexa 488 detection
[4] = target: Myc-tagged human M23 AQP4 on U87MG cells (human) (UniProt P55087); assay: as above
[5] = target: T1, human AQP4 M1 isoform on U87MG cells (human, UniProt P55087 1-323); assay: two-colour fluorescence ratio imaging on U87MG cells, rAb titration, single-site binding fit
T1 construct: Water channel; forms individual tetramers, no OAPs; also called M1 AQP4; M1-AQP4
T1 sequence (P55087 whole entry, canonical isoform): as the sequence (P55087 whole entry) above
From the text: (§1) FIG. 4B summarizes concentration-dependence binding curves for three recombinant NMO-IgGs, together with curve fits for a single-site binding model.

[6] = target: T2, human AQP4 M23 isoform on U87MG cells (human, UniProt P55087 23-323); assay: as above
T2 construct: Tetramers that assemble into orthogonal arrays of particles (OAPs); The chain begins at Met-23 of the long isoform; also called M23 AQP4; M23-AQP4
T2 sequence (P55087 23-323 limits assumed): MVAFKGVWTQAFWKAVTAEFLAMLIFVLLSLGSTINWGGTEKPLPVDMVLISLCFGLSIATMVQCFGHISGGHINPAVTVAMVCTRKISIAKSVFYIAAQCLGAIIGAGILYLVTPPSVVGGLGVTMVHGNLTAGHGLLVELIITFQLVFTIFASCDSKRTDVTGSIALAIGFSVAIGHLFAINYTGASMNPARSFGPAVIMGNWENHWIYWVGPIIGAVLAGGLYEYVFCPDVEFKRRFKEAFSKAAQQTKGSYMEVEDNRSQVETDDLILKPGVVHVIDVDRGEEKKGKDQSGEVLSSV
From the text: as §1

[7] = target: T2, human AQP4 M23 isoform on U87MG cells; assay: fluorescence ratio imaging on U87MG cells, single-site binding model
[8] = target: T3, purified recombinant human M1 AQP4 reconstituted in proteoliposomes (human, UniProt P55087 1-323); assay: surface plasmon resonance (Biacore T-100), AQP4 proteoliposomes on L1 chip, antibody injected
T3 construct: 3% (wt/wt) AQP4 in phosphatidylcholine:phosphatidylserine liposomes on a Biacore L1 chip; also called AQP4-reconstituted proteoliposomes; AQP4-proteoliposomes
T3 sequence (P55087 whole entry, form in doubt): as the sequence (P55087 whole entry) above
Method: Surface plasmon resonance. […] The mixture was dialyzed (10,000 dalton cut-off) against PBS at 4° C. for 48 h. […] Proteoliposomes were immobilized on a L1 sensor chip (Biacore) with four injections at 10 min/injection at 2 μl/min to achieve 6000 response units of proteoliposomes immobilization. The surface was then washed with two 20 s injections of 50 mM NaOH at 100 μl/min, and checked for surface quality with a 300 s injection of 0.01 mg/ml BSA at 20 μl/min. Flow channel 1 (Fc 1) was immobilized with 0% AQP4 as reference, and Fc 2 contained the AQP4 proteoliposomes. Binding studies were conducted with PBS at a flow rate of 15 μl/min. rAbs in PBS were injected for 80 s followed by a post-injection period of 240 s. Regeneration was performed by injection of 50 mM NaOH at 100 μl/min for 20 s. Binding studies were done in duplicate. Data were analyzed using Biacore T100 Evaluation software.
Binding of each monoclonal recombinant antibody to AQP4 in reconstituted proteoliposomes was measured by surface plasmon resonance.

[9] = target: M23:CCA mixtures (human M23 AQP4 co-expressed with M1-C13A/C17A) on U87MG cells (human) (UniProt P55087); assay: two-colour fluorescence ratio imaging on transiently transfected U87MG cells, rAb-53 titration
[10] = target: T2, human AQP4 M23 isoform on U87MG cells; assay: as above
[11] = target: T2, human AQP4 M23 isoform on U87MG cells; assay: as above; remark: listed apart in the source
[12] = target: T2, human AQP4 M23 isoform on U87MG cells; assay: as above; remark: listed apart in the source

Row | Molecule | Kd [1] [nM] | Kd [2] [nM] | EC50 (read off the curve) [3] [µg/mL] | EC50 (read off the curve) [4] [µg/mL] | Kd [5] [nM] | EC50 (read off the curve) [6] [µg/mL] | Kd [6] [nM] | Kd [7] [nM] | Kd [8] [nM] | koff [8] [s⁻¹] | kon [8] [M⁻¹ s⁻¹] | EC50 (read off the curve) [9] [µg/mL] | EC50 (read off the curve) [10] [µg/mL] | EC50 (read off the curve) [11] [µg/mL] | EC50 (read off the curve) [12] [µg/mL]
1 | monoclonal mouse anti-Myc IgG (Covance) (antibody) | 10 | 10 | 2 | 1 |  |  |  |  |  |  |  |  |  |  | 
2 | B1 |  |  |  |  | 147 | ~10 | 68 |  |  |  |  |  |  |  | 
3 | B2 |  |  |  |  | 2800 | ~7 |  | 44 | 27 | 0.00038 | 14000 | 6 | ~7 | ~7 | ~7
